Measurements reported in patent publication US20090060916A1 (published 2009).
Numbering of substitutions follows the chain as printed.

B1: DOM10-273-ASTKGPS-DOM9-155-78 (bispecific antibody)
chain: EVQLLESGGGLVQPGGSLRLSCAASGFTFELEEMDWVRQAPGKGLEWVSSISGSGGSTYYADSVKGRFTISRDNSKNTLYLQMNSLRAEDTAVYYCAKAYTGFDYWGQGTLVTVSSASTKGPSDIQMTQSPSSLSASVGDRVTITCRASRHIGDWLHWYQQKPGKAPKLLIAWASTLDSGVPSRFSGSGSGTDFTLTISSLQPEDFATYYCLQEGWGPPTFGQGTKVEIKR
notes: in-line fusion, from pDOM5
B2: DOM10-277-ASTKGPS-DOM9-155-78 (bispecific antibody)
chain: EVQLLESGGGLVQPGGSLRLSCAASGFTFSSYEMDWVRQAPGKGLEWVSTISADGVTTYYADSVKGRFTISRDNSKNTLYLQMNSLRAEDTAVYYCAKAFDAFDYWGQGTLVTVSSASTKGPSDIQMTQSPSSLSASVGDRVTITCRASRHIGDWLHWYQQKPGKAPKLLIAWASTLDSGVPSRFSGSGSGTDFTLTISSLQPEDFATYYCLQEGWGPPTFGQGTKVEIKR
notes: in-line fusion, from pDOM5
B3: DOM10-208-TVAAPS-DOM9-155-78 (bispecific antibody)
chain: DIQMTQSPSSLSASVGDRVTITCRASSPITDGLAWYQQKPGKAPKLLIDTGSRLQSGVPSRFSGSGSGTDFTLTISSLQPEDFATYYCRQGAMGSYTFGQGTKVEIKRTVAAPSDIQMTQSPSSLSASVGDRVTITCRASRHIGDWLHWYQQKPGKAPKLLIAWASTLDSGVPSRFSGSGSGTDFTLTISSLQPEDFATYYCLQEGWGPPTFGQGTKVEIKR
notes: in-line fusion, from pDOM5
B4: DOM10-270-TVAAPS-DOM9-155-78 (bispecific antibody)
chain: DIQMTQSPSSLSASVGDRVTITCRASSVILNELHWYQQKPGKAPKLLISAVSRLQSGVPSRFSGSGSGTDFTLTISSLQPEDFATYYCLQTFWGPYTFGQGTKVEIKRTVAAPSDIQMTQSPSSLSASVGDRVTITCRASRHIGDWLHWYQQKPGKAPKLLIAWASTLDSGVPSRFSGSGSGTDFTLTISSLQPEDFATYYCLQEGWGPPTFGQGTKVEIKR
notes: in-line fusion, from pDOM5
B5: DOM9-112-210-ASTKGPS-DOM10-213 (bispecific antibody)
chain: EVQLLESGGGLVQPGGSLRLSCAASGFTFRNFGMGWVRQAPGKGLEWVSWIISSGTETYYADSVKGRFTISRDNSKNTLYLQMNSLRAEDTAVYYCAKSLGRFDYWGQGTLVTVSSASTKGPSDIQMTQSPSSLSASVGDRVTITCRASQAIPWGLNWYQQKPGKAPKLLIYDVSSLQSGVPSRFSGSGSGTDFTLTISSLQPEDFATYYCQQDIHIPMTFGQGTKVEIKR
notes: in-line fusion, from pDOM5
B6: DOM9-112-210-ASTKGPS-DOM10-273 (bispecific antibody)
chain: EVQLLESGGGLVQPGGSLRLSCAASGFTFRNFGMGWVRQAPGKGLEWVSWIISSGTETYYADSVKGRFTISRDNSKNTLYLQMNSLRAEDTAVYYCAKSLGRFDYWGQGTLVTVSSASTKGPSEVQLLESGGGLVQPGGSLRLSCAASGFTFELEEMDWVRQAPGKGLEWVSSISGSGGSTYYADSVKGRFTISRDNSKNTLYLQMNSLRAEDTAVYYCAKAYTGFDYWGQGTLVTVSS
notes: in-line fusion, from pDOM5
B7: DOM9-112-210-ASTKGPS-DOM10-416 (bispecific antibody)
chain: B6 chain with E153K, L154G, E155S, S173T, G176A, S177D, G179R, S180E, A222S, G225S
notes: in-line fusion, from pDOM5
B8: DOM9-112-210-ASTKGPS-DOM10-277 (bispecific antibody)
chain: EVQLLESGGGLVQPGGSLRLSCAASGFTFRNFGMGWVRQAPGKGLEWVSWIISSGTETYYADSVKGRFTISRDNSKNTLYLQMNSLRAEDTAVYYCAKSLGRFDYWGQGTLVTVSSASTKGPSEVQLLESGGGLVQPGGSLRLSCAASGFTFSSYEMDWVRQAPGKGLEWVSTISADGVTTYYADSVKGRFTISRDNSKNTLYLQMNSLRAEDTAVYYCAKAFDAFDYWGQGTLVTVSS
notes: in-line fusion, from pDOM5
B9: DOM9-112-210-ASTKGPS-DOM10-224 (bispecific antibody)
chain: EVQLLESGGGLVQPGGSLRLSCAASGFTFRNFGMGWVRQAPGKGLEWVSWIISSGTETYYADSVKGRFTISRDNSKNTLYLQMNSLRAEDTAVYYCAKSLGRFDYWGQGTLVTVSSASTKGPSDIQMTQSPSSLSASVGDRVTITCRASPNIAVDLAWYQQKPGKAPKLLIRGVSRLQSGVPSRFSGSGSGTDFTLTISSLQPEDFATYYCRQGAMGSYTFGQGTKVEIKR
notes: in-line fusion, from pDOM5

Assays:
human IL-4 = target: T1, human IL-4 (human, UniProt P05112 25-153, biotinylated in the receptor binding assay and on the Biacore chip); experiment: DOM9 RBA (IL-4 RBA)
T1 construct: also called interleukin-4; biotinylated IL-4
T1 sequence (looked up): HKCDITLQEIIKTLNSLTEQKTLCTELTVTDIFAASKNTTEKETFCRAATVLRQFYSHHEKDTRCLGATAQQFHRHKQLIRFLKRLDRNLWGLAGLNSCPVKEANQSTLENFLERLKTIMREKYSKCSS
Description: The wells were washed three times with 0.1% (v/v) Tween 20 in PBS, followed by three washes with PBS, before blocking with 2% (w/v) BSA in PBS. […] The reaction was stopped by the addition of HCl and the absorbance read at 450 nm.

human IL-13 = target: T2, human IL-13 (human, UniProt P35225 35-146, biotinylated on the Biacore chip); experiment: Dom10 RBA (IL-13 sandwich ELISA per paragraph 471)
T2 construct: also called hIL-13; recombinant human IL-13
T2 sequence (P35225 35-146 limits assumed): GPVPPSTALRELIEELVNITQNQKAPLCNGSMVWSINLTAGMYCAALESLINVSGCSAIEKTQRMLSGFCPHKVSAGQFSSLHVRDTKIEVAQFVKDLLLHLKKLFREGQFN
Experimental: A MAXISORP™ plate (high protein binding ELISA plate, Nunc, Denmark) was coated overnight with 2.5 μg/ml coating antibody (Module Set, Bender MedSystems, Vienna, Austria), then washed once with 0.05% (v/v) Tween 20 in PBS before blocking with 0.5% (w/v) BSA 0.05% (v/v) Tween 20 in PBS. […] The plate was then incubated with TMB substrate (KPL, Gaithersburg, USA), and the reaction was stopped by the addition of HCl and the absorbance read at 450 nm.

Row | Binder | IC50 (human IL-4) [nM] | EC50 (human IL-13) [nM]
1 | B1 | 2.25 | 185
2 | B2 | 9.45 | 648
3 | B3 | 8.18 | 4240
4 | B4 | 8.6 | 37.2
5 | B5 | 4.29 | 1150
6 | B6 | 10.5 | 4550
7 | B7 | 7.27 | 34400
8 | B8 | 11.7 | 4380
9 | B9 | 2.75 | 4580
